# Results from article PMC8439434.
# Assays:
# [1] = biological target: HLA-B*08:01 (human (endogenous in the Steinlin EBV transformed cell line)); assay: radioligand binding; previously validated B*08:01 inhibition of binding assay (ref. 10); radiolabeled probe not named
# [2] = biological target: HLA-C*07:01 purified from the Steinlin EBV transformed homozygous cell line (human (endogenous in the Steinlin EBV transformed cell line)); assay: radioligand binding; classical MHC-peptide inhibition of binding assay specific for HLA-C*07:01: purified MHC from the Steinlin line, radiolabeled 3424.0028 as probe, test peptides as inhibitors, anti-HLA Class I B123.2 mAb
substance,measurement,setting,value
"peptide 3424.0028 (…, DNA replication licensing factor MCM5 289-297)",fold lower affinity than in the C*07:01 assay,[1],1500 fold
same,affinity (from inhibition of binding),[2],0.21 nM
